According to patent US20220242973A1 (Molecular Partners, published 2022):
Positions count from the first letter of the chain named.

T1: Recombinant human FAP (fibroblast activation protein) (human, UniProt Q12884 26-760)
T1 construct: Bought soluble recombinant protein; Chemically biotinylated for the HTRF screen; also called hFAP; biotinylated human FAP
T1 sequence (looked up): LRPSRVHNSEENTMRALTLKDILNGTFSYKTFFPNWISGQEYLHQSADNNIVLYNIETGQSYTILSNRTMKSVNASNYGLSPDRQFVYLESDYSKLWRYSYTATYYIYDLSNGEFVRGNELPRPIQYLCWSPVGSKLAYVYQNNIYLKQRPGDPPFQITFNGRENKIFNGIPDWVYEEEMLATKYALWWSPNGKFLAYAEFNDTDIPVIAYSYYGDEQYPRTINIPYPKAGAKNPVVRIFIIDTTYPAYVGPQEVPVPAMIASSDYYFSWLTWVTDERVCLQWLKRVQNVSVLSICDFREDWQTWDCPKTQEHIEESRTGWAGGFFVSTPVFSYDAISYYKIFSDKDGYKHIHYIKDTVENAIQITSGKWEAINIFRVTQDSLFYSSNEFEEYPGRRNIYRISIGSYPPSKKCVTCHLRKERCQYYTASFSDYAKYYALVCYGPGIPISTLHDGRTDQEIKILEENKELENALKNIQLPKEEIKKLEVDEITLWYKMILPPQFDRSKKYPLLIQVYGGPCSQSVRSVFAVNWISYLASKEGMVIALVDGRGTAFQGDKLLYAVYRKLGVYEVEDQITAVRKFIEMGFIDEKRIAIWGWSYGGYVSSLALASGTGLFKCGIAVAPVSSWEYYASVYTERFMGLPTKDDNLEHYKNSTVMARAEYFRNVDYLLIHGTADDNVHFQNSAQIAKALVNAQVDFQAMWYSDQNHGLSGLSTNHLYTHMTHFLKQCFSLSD

T2: Histidine-tagged cynomolgus FAP (cynomolgus monkey (Macaca fascicularis), UniProt Q12884 30-760 (human entry))
T2 construct: the tie between the two is by these matching words only; also called cFAP; cyno FAP
T2 sequence: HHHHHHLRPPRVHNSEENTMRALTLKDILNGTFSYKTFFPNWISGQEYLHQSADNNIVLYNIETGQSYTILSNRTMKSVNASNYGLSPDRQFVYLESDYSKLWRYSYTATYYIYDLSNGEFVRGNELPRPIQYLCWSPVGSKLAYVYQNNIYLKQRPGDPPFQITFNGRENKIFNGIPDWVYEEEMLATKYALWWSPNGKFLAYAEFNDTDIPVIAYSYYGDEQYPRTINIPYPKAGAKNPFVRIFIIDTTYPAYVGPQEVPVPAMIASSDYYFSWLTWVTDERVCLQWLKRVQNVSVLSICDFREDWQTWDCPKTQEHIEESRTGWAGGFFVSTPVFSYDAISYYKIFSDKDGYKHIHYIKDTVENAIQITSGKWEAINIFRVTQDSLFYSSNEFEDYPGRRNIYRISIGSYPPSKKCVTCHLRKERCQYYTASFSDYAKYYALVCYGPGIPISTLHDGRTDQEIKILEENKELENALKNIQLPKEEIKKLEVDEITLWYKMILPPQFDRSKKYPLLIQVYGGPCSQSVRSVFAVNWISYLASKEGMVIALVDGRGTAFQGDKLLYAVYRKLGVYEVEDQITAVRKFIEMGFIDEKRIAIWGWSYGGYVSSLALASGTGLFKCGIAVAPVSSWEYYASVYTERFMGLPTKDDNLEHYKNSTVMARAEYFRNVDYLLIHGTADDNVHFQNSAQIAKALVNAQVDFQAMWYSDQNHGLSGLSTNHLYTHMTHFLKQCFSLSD

B1: DARPin® protein #38 (designed binder)
chain: MRGSHHHHHHGSDLGKKLLEAARAGQDDEVRELLKAGADVNAKDEVGRTPLHLAAQIGHLEIVEVLLKAGADVNAKNRWGVTPLHVAAWVGHLEIVEVLLKAGADVNAKDQQGATPLHLAAIRGHLEIVEVLLKAGADVNAQDKSGKTPADLAADAGHEDIAEVLQKLN
B2: DARPin® protein #34 (designed binder)
chain: MRGSHHHHHHGSDLGKKLLEAARAGQDDEVRELLKAGADVNAKDVLGWTPLHLAAFEGHLEIVEVLLKAGADVNAKDKKGWTPLQLAARTGHLEIVEVLLKAGADVNAKDHIGATPLHLAAWQGHPEIVEVLLKAGADVNAQDKSGKTPADLAADAGHEDIAEVLQKAA
B3: DARPin® protein #36 (designed binder)
chain: B2 chain with E32I, K35A, A168L, A169N
B4: DARPin® protein #35 (designed binder)
chain: MRGSHHHHHHGSDLGEKLLVAALYGQDDEVRELLKAGADVNAKDQWGLTPLHKAALQGHLEIVEVLLKAGADVNAKDERGHTPLHWAARFGHLEIVEVLLKAGADVNAQDQKGYTPADLAALWGHEDIAEVLQKAA
B5: DARPin® protein #37 (designed binder)
chain: B4 chain with E32I, K35A, A135L, A136N
B6: DARPin® protein #39 (designed binder)
chain: MRGSHHHHHHGSDLGKKLLEAARAGQDDEVRELLKAGADVNAKDEWGKTPLHLAAIRGHLEIVEVLLKAGADVNAKDTHGITPLHLAAFVGHLEIVEVLLKAGADVNAKDYLGRTPLHIAAAKGHLEIVEVLLKAGADVNAQDKSGKTPADLAADAGHEDIVEVLQKLN

Molecular target: T1, Recombinant human FAP (fibroblast …)
Experiment: SPR (ProteOn), human FAP immobilized on GLC chip
Summary of the method: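 Human FAP amine-coupled (pH 5.3 acetate) to about 2000 RU. Ankyrin repeat proteins injected at 0.5–30 nM in PBS pH 7.4 with 0.005% Tween 20 at 100 μl/min, then ≥25 min dissociation, with double referencing. KD calculated from the fitted on- and off-rates.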

Binder | Kd [pM]
B1 | 58
B2 | 177
B3 | 118
B4 | 210
B5 | 140
B6 | 220

Molecular target: T1, Recombinant human FAP (fibroblast …)
Experiment: SPR (ProteOn), human FAP immobilized on GLC chip
Remark: another data set of the same source
Protocol: (§1) Briefly, human FAP was diluted in 10 mM Na-acetate pH 5.3 buffer and covalently immobilized on a GLC chip (BioRad) to a level of around 2000 resonance units (RU). The interaction of ankyrin repeat protein and hFAP was then measured by injecting 200 μl running buffer (PBS, pH 7.4 containing 0.005% Tween 20®) containing serial dilutions of ankyrin repeat proteins covering a concentration range between 30 nM and 0.5 nM (on-rate measurement), followed by a running buffer flow for at least 25 minutes at a constant flow rate of 100 μl/min (off-rate measurement). The regeneration was performed using 15 μl of 10 mM Glycine pH 2 followed by 15 μl of 124 mM H₃PO₄. The signals (i.e. resonance unit (RU) values) of the interspots and a reference injection (i.e. injection of running buffer only) were subtracted from the RU traces obtained after injection of ankyrin repeat protein (double-referencing). Based on the SPR traces obtained from the on-rate and off-rate measurements, the on- and off-rate of the corresponding ankyrin repeat protein—FAP interaction was determined.
(§2) Dissociation constants (KD) were calculated from the estimated on- and off-rates using standard procedures known to the person skilled in the art. […] Table 4 provides the KD values on cFAP and hFAP of some of the selected ankyrin repeat proteins as examples.

Binder | Kd [pM]
B1 | 58
B2 | 177
B3 | 118
B4 | 210
B5 | 140
B6 | 220

Molecular target: T2, Histidine-tagged cynomolgus FAP
Experiment: SPR (ProteOn), cynomolgus FAP immobilized on GLC chip
Protocol: as §1, with “cyno” for “human”, “pH5.3” for “pH 5.3”, “cFAP” for “hFAP”, “25” for “30”, “0.3” for “0.5”
as §2

Binder | Kd [pM]
B1 | 47
B2 | 71
B3 | 101
B4 | 150
B5 | 112
B6 | 155
